In PMC5835332:

Target: actin from bovine muscle, monomerized (G-actin), labelled with NT-647 dye (bovine) (UniProt P68138)
Assay: MST

Substance	Kd [nM]
F1_(P97-232), recombinant fragment of the P97 cilium adhesin (amino acids 106-758) (domain or fragment)	34.2
F3_(P97-232), recombinant fragment of the P97 cilium adhesin (amino acids 768-938) (domain or fragment)	1790
